Reference: article PMC5228053

Target: pyruvate kinase type M2 (PKM2) (human (endogenous in A549)) (UniProt P14618)
Experiment: cross-linking; A549 cells in PBS (2 mg/ml protein), EDC 10 mM / sulfo-NHS 5 mM, room temperature, quenched with 20 mM DTT, then western blot for PKM2; cells treated with pTyr peptide, FBP or serine

Chain of pyruvate kinase type M2 (PKM2), P14618 1-531 (enzyme; other documents disagree on this pair) (P14618 whole entry): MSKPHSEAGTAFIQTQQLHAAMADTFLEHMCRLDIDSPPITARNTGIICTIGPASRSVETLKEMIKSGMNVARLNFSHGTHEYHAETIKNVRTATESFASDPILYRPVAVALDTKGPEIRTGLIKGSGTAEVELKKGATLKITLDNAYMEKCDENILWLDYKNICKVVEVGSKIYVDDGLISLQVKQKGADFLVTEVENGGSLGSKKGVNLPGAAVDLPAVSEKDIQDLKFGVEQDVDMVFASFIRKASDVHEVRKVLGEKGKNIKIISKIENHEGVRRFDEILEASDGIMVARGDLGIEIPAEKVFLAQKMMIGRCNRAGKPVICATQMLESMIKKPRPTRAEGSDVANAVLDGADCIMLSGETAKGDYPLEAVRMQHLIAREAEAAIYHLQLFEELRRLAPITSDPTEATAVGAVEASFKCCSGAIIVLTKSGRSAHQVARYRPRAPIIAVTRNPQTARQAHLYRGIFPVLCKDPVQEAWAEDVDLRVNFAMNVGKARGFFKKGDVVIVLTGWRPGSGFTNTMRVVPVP

**Q.** How did the stoichiometry N turn out when “pyruvate kinase type M2 (PKM2), P14618 1-531 (enzyme; other documents disagree on this pair)” was run?
**A.** The stoichiometry N was 2.
